We go through two compounds from patent publication US8383806B2, “Method of reversing carboplatin resistance by inhibition of HGFIN” (University of Medicine and Dentistry of New Jersey, priority 2000, dated 2013).

In one assay the target is T1, HGFIN (Homo sapiens, UniProt Q14956).
T1 construct: made in house
T1 sequence (Q14956 23-560 isoform Q14956-2): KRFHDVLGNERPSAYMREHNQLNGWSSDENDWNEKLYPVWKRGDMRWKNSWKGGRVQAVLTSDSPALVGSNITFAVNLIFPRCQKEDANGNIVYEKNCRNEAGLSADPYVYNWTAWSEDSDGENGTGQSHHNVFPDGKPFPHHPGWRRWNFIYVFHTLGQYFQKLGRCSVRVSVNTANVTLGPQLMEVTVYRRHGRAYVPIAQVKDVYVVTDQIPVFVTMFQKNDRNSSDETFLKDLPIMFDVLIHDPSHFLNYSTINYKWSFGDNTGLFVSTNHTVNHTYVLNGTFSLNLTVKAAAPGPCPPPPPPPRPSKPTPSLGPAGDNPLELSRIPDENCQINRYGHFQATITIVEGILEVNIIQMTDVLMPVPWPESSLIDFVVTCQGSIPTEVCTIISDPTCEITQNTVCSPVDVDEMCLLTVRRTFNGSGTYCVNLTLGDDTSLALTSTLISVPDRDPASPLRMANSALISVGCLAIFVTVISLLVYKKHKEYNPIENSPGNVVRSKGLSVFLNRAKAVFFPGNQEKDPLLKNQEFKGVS
Kind of assay: SELDI ProteinChip (PS1) HGFIN-SP interaction. The note with it: HGFIN covalently bound to PS1 chip, SP added. The class given is binding. As for the experimental part:
Before studying the interaction between SP and HGFIN, each protein was profiled by the Surface Enhanced Laser Desorption/Ionization (SELDI) ProteinChip Array technology (Ciphergen Biosystems Inc., Fremont, Calif.). Normal phase (NP1) arrays were used for profiling and preactivated surface arrays (PS1) for HGFIN-SP interaction. For profiling studies, 2 μg of purified HGFIN or 2 μg of SP were spotted directly onto the NP1 arrays. Prior to adding of the proteins, chips were pre-wet with PBS. Arrays were incubated at room temperature until the protein was absorbed, which took approximately 5 to 10 minutes. […] Chips were immediately analyzed using linear, time-lag focusing laser desorption/ionization SELDI-time-of-flight mass spectrometer (Model PBS II). Accurate mass was determined by collecting approximately 150 averaged laser shots. […]
HGFIN-SP interaction was studied by pre-treating the PS1 chips with 50% acetonitrile for 3 minutes. […] CHCA was applied and the non-covalently bound SP was detected with the SELDI-Time of Flight Mass spectrometer as described for the profiling studies for HGFIN.
Protein-protein interactions were performed with the PS1 protein chip since this chip was determined to covalently bind HGFIN. SP was added to the chip and then detected with the SELDI system.

The target in assay [1] is T2, Fibronectin-Fragment III-C (FN-IIIC) (Homo sapiens, UniProt P02751).
T2 construct: 20 ng fibronectin, fragment III-C (positive control); purchased Sigma (St Louis, Mo.)
In words: SELDI ProteinChip (PS1) positive control, FN-IIIC and SP. The class given is binding. The note with it: FN-IIIC covalently coated. Here is the method:
HGFIN-SP interaction was studied by pre-treating the PS1 chips with 50% acetonitrile for 3 minutes. After this, the chips were incubated for 45 minutes with the following: 2.5 μg HGFIN (experimental sample), anti-Id2, an unrelated IgG regarding its ability to complex with SP and was therefore treated as a negative control, rabbit anti-SP (positive control) or 20 ng fibronectin, fragment III-C (positive control). The arrays were blocked for 25 minutes with 1 M ethanolamine and washed with PBS+0.5% TRITON-X (2×) and a final PBS wash step. After this the chips were washed with PBS+TRITON-X, PBS, rinsed with 5 mM HEPES and then dried. CHCA was applied and the non-covalently bound SP was detected with the SELDI-Time of Flight Mass spectrometer as described for the profiling studies for HGFIN.
Fibronectin has been reported to bind SP. Therefore, this property of fibronectin was used as a positive control for SP interaction on the SELDI system. […] Similar results were shown with another positive control: rabbit anti-SP (covalently bound) and SP. No peak was detected in two negative controls, which consisted of bovine serum albumin or an unrelated antibody (anti-Id2) covalently bound to the surface of PS1.

The subject of assay [2] is cancer stem cells from breast cancer cell lines. In words: Drug exposure of breast cancer stem cell clones. The class given is cell-based. The note with it: selected clones.
Description: Breast cancer cells are cultured in the presence of each or combinations of the anti-cancer agents 5-FU, Methothrexate, and Cytarabine. […] Cells are passaged at least 5 times in high concentrations of anti-cancer drugs. […] Breast cancer cells were subjected to rounds of exposure to 5-fluorouracil (5-FU), methotrexate, and cytarabine.

T2 sequence (P02751 627-702 limits assumed): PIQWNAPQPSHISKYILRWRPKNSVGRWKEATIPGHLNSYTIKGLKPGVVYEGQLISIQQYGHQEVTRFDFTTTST

Substance P [SP]: the “non-covalently bound SP detected on HGFIN-coated PS1 chip (SELDI)” value in the assay with HGFIN is “single peak at ˜13000 Da”. For the same compound, the “SP detected on FN-IIIC-coated PS1 chip (SELDI)” value in assay [1] is given as “single peak at ˜13000 Da”. On to `O=c1[nH]cc(F)c(=O)[nH]1` [5-FU, 5-fluorouracil], for which the “response of cancer stem cells to the drug” value in assay [2] is recorded as “resistant”.
